{"source": "patent US7718385B2", "about": "“Bioactivation of alkylating agents for cancer treatment” (priority 2003, dated 2010)", "substrate": "CC1=C(CO)C2=C(C)C3(CC3)[C@@](C)(O)C(=O)C2=C1", "assay": "purified protein, by the assay type", "settings": "other: formation of Product 8; 37.0 °C", "data": [{"protein": "recombinant rat AOR (Rattus norvegicus; Q160G/Q263G/Q264G/Q276G) (protein) MVQAKTWTLKKHFEGFPTDSNFELRTTELPPLNNGEVLLEALFLSVDPYMRVAAKKLKEGDSMMGEQVARVVESKNSAFPTGTIVVALLGWTSHSISDGNGLRKLPAEWPDKLPLSLALGTVGMPGLTAYFGLLDICGLKGGETVLVNAAAGAVGSVVGGIAKLKGCKVVGTAGSDEKVAYLKKLGFDVAFNYKTVKSLEEALRTASPDGYDCYFDNVGGEFSNTVILQMKTFGRIAICGAISQYNRTGPCPPGPSPEVIIYGGLRMEGFIVTRWGGEVRQKALTDLMNWVSEGKIRYHEYITEGFEKMPAAFMGMLKGDNLGKTIVKA", "values": [{"measurement": "Km", "result": 145, "unit": "µM"}, {"measurement": "Vmax", "result": 0.275, "unit": "µmol/min/mg"}]}]}
